Test results taken from patent US20150023971A1 (H LUNDBECK A S, published 2015).

B3: recombinant human p75 neurotrophin receptor/Fc chimera (R&D systems) (Fc fusion, UniProt P08138 29-250, looked up)
chain: KEACPTGLYTHSGECCKACNLGEGVAQPCGANQTVCEPCLDSVTFSDVVSATEPCKPCTECVGLQSMSAPCVEADDAVCRCAYGYYQDETTGRCEACRVCEAGSGLVFSCQDKQNTVCEECPDGTYSDEANHVDPCLPCTVCEDTERQLRECTRWADAECEEIPGRWITRSTPPEGSDSTAPSTQEPEAPPEQDLIASTVAGVVTTVMGSSQPVVTRGTTDN
notes: Bought from R&D systems; also called p75-IgG-Fc chimeric protein; p75^NTR; not shown: IgG Fc part of the bought chimera

Experiments:
[1] = molecular target: T1, purified human Sortilin extracellular domain (produced in stably transfected CHO cells) (human, UniProt Q99523 78-755); test: SPR (Biacore), NGF at 200 and 500 nM over immobilised Sortilin extracellular domain; the text gives ~8 nM for this pair
T1 construct: also called immobilized Sortilin
T1 sequence: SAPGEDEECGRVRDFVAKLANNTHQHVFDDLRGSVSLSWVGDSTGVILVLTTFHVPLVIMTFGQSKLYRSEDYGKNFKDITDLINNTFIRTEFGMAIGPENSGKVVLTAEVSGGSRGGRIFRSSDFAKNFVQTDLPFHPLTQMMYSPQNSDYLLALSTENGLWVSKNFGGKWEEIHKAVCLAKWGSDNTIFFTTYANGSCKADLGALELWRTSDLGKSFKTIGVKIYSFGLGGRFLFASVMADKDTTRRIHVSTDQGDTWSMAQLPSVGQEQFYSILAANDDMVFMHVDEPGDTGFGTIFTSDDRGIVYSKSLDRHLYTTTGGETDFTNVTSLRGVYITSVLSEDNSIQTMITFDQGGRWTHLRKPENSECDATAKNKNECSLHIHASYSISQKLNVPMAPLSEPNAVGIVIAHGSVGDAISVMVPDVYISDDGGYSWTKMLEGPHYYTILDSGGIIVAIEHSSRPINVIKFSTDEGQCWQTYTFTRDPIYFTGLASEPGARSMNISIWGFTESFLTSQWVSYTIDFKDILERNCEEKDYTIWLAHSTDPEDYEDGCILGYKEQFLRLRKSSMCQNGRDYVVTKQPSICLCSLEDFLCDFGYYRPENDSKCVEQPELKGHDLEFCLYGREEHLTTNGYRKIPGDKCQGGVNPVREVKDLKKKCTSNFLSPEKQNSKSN

[2] = molecular target: T1, purified human Sortilin extracellular …; test: SPR (Biacore), 50-500 nM NGF over immobilised Sortilin extracellular domain
[3] = molecular target: T2, recombinant human TrkA/Fc chimera (R&D systems) (human, UniProt P04629-2 33-407); test: SPR (Biacore), 50-500 nM NGF over immobilised TrkA-IgG-Fc
T2 construct: Bought from R&D systems; also called TrkA-IgG-Fc; not shown: IgG Fc part of the bought chimera
T2 sequence (P04629 other isoform, or with tags, fused parts or gaps mutant): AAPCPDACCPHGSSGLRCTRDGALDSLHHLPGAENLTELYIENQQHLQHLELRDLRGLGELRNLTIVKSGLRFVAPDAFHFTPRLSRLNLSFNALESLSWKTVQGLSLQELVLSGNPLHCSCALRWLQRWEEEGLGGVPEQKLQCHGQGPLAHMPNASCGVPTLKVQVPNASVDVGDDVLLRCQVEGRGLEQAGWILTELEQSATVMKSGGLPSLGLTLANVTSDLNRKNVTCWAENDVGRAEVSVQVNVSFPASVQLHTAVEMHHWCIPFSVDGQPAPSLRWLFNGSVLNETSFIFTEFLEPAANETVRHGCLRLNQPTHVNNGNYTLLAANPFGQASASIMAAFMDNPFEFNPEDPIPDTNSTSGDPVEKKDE

[4] = molecular target: B3; test: SPR (Biacore), 50-500 nM NGF over immobilised p75-IgG-Fc
[5] = molecular target: T1, purified human Sortilin extracellular …; test: SPR (Biacore), immobilised Sortilin extracellular domain; other preparations of mature BDNF
[6] = molecular target: T1, purified human Sortilin extracellular …; test: SPR (Biacore), immobilised Sortilin extracellular domain (94 fmol/mm2); mature BDNF from Promega (#G1491), lower panel of FIG. 7
[7] = molecular target: T3, Human recombinant proNGF (produced and purified in E. coli) (human, UniProt P01138 19-241); test: SPR (Biacore), 25-500 nM proNGF over immobilised p75-IgG-Fc
T3 construct: Made as in Rattenholl et al 2001
T3 sequence (P01138 other isoform, or with tags, fused parts or gaps limits assumed): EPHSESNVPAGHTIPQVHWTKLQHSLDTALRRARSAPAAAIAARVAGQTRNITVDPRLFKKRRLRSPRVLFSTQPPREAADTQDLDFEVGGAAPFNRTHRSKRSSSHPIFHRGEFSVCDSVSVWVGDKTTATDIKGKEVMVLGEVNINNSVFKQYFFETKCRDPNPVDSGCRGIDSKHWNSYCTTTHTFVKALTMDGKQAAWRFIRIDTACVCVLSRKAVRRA

B1: Mature murine NGF (Austral Biologicals) (ligand, mouse, UniProt P01139 122-241, looked up)
chain: SSTHPVFHMGEFSVCDSVSVWVGDKTTATDIKGKEVTVLAEVNINNSVFRQYFFETKCRASNPVESGCRGIDSKHWNSYCTTTHTFVKALTTDEKQAAWRFIRIDTACVCVLSRKATRRG
notes: mature; Bought protein
Kd [1]: ~87 nM | Kd [2]: ~8 nM | Kd [3]: ~2 nM | Kd [4]: ~1 nM

B2: Mature recombinant human BDNF (Promega #G1491) (ligand)
chain: HSDPARRGELSVCDSISEWVTAADKKTAVDMSGGTVTVLEKVPVSKGQLKQYFYETKCNPMGYTKEGCRGIDKRHWNSQCRTTQSYVRALTMDSKKRIGWRFIRIDTSCVCTLTIKRGR
notes: Bought protein; also called mature BDNF
Kd [5]: 10 nM | Kd [6]: ~40 nM

B3
Kd [7]: ~12 nM
